From patent US20170327561A1, “Anti-Angiogenic Properties of Collagen V Derived Fragments” (Ecole Normale Superieure de Lyon, priority 2014, published 2017)
Positions count from the first letter of the chain named. Entries after “also recorded” stand apart in the source; their conditions may differ.

B1: HEPV: 12 kDa recombinant fragment of the collagen V pro-α1 chain, residues Ile824 to Pro950, SEQ ID NO. 1, binds heparin (protein, listed as Homo sapiens)
chain: IKGDRGEIGPPGPRGEDGPEGPKGRGGPNGDPGPLGPPGEKGKLGVPGLPGYPGRQGPKGSIGFPGFPGANGEKGGRGTPGKPGPRGQRGPTGPRGERGPRGITGKPGPKGNSGGDGPAGPPGERGP
modifications: HEPV
B2: ΔHBS-HEPV: non-functional HEPV mutant, SEQ ID NO. 4, Lys905, Arg909 and Arg912 replaced with alanines; negative control (protein)
chain: B1 chain with K82A, R86A, R89A
modifications: Synthetic Mutant of HEPV
notes: 4, Lys905, Arg909 and Arg912 replaced with alanines; negative control

Tests used:
[1] = test system: FGF-2 induced angiogenesis; assay: Hemoglobin measurement in implanted FGF-2 sponges; format: in vivo, nude mice; details: 20 μg peptide first day then every two days, after 7 days of treatment
Excerpt: (B) Formation of new blood vessels in nude mice implanted with a sponge impregnated with FGF-2 or PBS. After repeated treatments with peptides HEPV or HEPV-ΔHBS, the sponges are extracted and the presence of hemoglobin quantified. The presence of hemoglobin reflects the blood vessels content, as documented by the photos.
Disc Cellspon cellulose sponges (thickness 2 mm, diameter 10 mm; Cellomeda, Turku, Finland) were implanted under the skin of the mice. Prior to implantation, the sponges were hydrated with 50 μl of either PBS (negative control) or FGF-2 (200 ng/50 μl; positive angiogenic control) (recombinant FGF-2, Eurobio-AbCys, Les Ulis, France). […]
After implantation of the PBS or FGF-2 treated sponges and treatment with 50 μl containing 50 μg HEP peptides at DO, 2, 3 and 5, the hemoglobin content was measured at D8. […] Each sponge was homogenized in 1 ml of RIPA lysis buffer containing a cocktail of protease inhibitors, centrifuged at 200 g, and the supernatants were quantified. The extent of vascularization of the sponge implants was assessed by measuring the concentration of hemoglobin with Drabkin's reagent (Sigma-Aldrich, Saint-Quentin Fallavier, France). […]
20 μg of HEPV or ΔHBS-HEPV have been injected simultaneously with PBS or FGF-2, at the first day and then every two days. After 7 days of treatment, sponges are taken out and analyzed. […]

[2] = test system: murine TS/Apc breast cancer tumors; assay: Immunohistology of tumor sections (anti-CD31, anti-Ki67); format: in vivo, nude mice
Procedure: At day 20, 3 mice/group were sacrificed for immunohistology studies. At day 35 days after implantation all remaining tumors were extracted.
Frozen sections (8 μm) from tumors were fixed in acetone for 10 min. Sections were then washed 3×5 min in Tris-buffered saline containing 0.1% Tween 20, and endogenous peroxidases were blocked with 0.1% H2O2 in methanol for 20 min. Sections were then sequentially incubated for 1 h with a rat monoclonal anti-CD31 antibody (MEC13.3;1:500; Pharmingen) or rabbit anti-Ki67 (1:100; AbCAM) and for 1 h with goat anti-rat antibody for CD31 (1:500; Cell-signaling) or goat anti-rabbit for Ki67 (1:200; Dako). […] Sections were counterstained with hematoxylin and all were mounted.
Staining against the endothelial marker CD31 by means of immunohistochemistry was followed by observation under low magnification scope (100×), five field of view of each tumor (5 tumors by condition). Then, vessels quantity were measured in each of these areas utilizing ImageJ software (http://rsbweb.nih.gov/ij). All counts were performed in a blinded manner.
After immunohistochemical staining against Ki67, slides were observed under high magnification scope (200×). Six to nine areas by tumor were photographed. These photographs were analyzed by the plugging ImmunoRatio in ImageJ software (http://rsbweb.nih.gov/ij). The Ki67 index was evaluated in a blinded manner and calculated as Ki67-positive cells divided by all tumor cells in one field.
Mice from each group are sacrificed at day 20 and day 33 to check the formation of novel blood vessels. The account of the blood vessels is realized by observations of the tumors samples.
The proliferation of tumor cells with an antibody anti-Ki67 is also realized on these tumor samples.

[3] = test system: murine TS/Apc breast cancer cells implanted subcutaneously; assay: Antitumor activity, tumor growth by caliper; format: in vivo, nude mice; details: 50 μg peptide every 2 days, versus HEPV-ΔHBS control; from day 20 of treatment
Procedure: (A) Murine Tsa/Pc breast cancer cells implanted subcutaneously are treated from day 5 repeatedly by peritumoral injections of 50 μl PBS containing 50 μg control (HEPV-ΔHBS) of HEPV peptides every 2 days. […] Tumors sections were immunostained using an anti-CD31 antibody that detects blood vessels (B) or an anti-Ki67 antibody that stains proliferating cells (C).
TS/Apc-pGL3 is a cell line derived from the original adenocarcinoma TS/Apc mouse cell line stably transfected with the pGL3-luciferase reporter gene (Promega, Charbonnieres, France). Cells were cultured at 37° C. in a humidified 5% CO2 incubator in RPMI 1640 supplemented with 1% glutamine, 10% fetal bovine serum, 50 units/ml penicillin, 50 μg/ml streptomycin, β-mercaptoethanol (25 μM) and 700 μg/ml Geneticin® (G418 sulphate; Gibco, Paisley, UK).
Twenty female athymic Swiss nude mice, purchased from Janvier (Le Genest Saint Isle, France) at 6-8 weeks of age were used and maintained under specific pathogen-free conditions. Mice received a subcutaneous (s.c.) injection of 10^6 TS/Apc-pGL3 cells suspended in 200 μl of PBS into the right flank usually results in formation of 6-8 mm-diameter tumors after one week. […] Tumor growth was evaluated using calipers.
Tumors have been induced by implantation of murine breast cancer cells (TSA) in nude mice. […] The volume of the tumors is measured with a caliper.

[4] = Organ distribution of the peptide after injection into the blood system; format: in vivo; details: mouse
[5] = test system: FGF-2-induced ERK1/2 and Akt phosphorylation in HUVEC; assay: Phosphorylation assay (Western blot) after FGF-2 stimulation; format: cell-based; details: peptide 8 μg/mL 24 h, FGF-2 50 ng/mL
Procedure: (§1) HUVEC were seeded at 2.10^5 cells/wells in ECGM2 in 6-well plates. The cells were treated with HEPV or ΔHBS-HEPV (8 μg/mL) during 24 h in serum free medium and then stimulated with FGF-2 or VEGF (50 ng/mL) for 5 or 20 minutes at 37° C. Cells were then washed twice with cold PBS and scraped and lysed at 4° C. in lysis buffer 1% NP-40 (150 mM NaCl, 50 mM Hepes pH 7.4, 5 mM EDTA, 10% glycerol, 1% NP-40, complete protease inhibitor cocktail (Roche), 1 mM Na3VO4). After centrifugation (13 000 g, 15 min, 4° C.), soluble proteins were collected. Protein amount was determined by BCA protein assay (Pierce) and equal amounts of proteins (10 μg) were loaded on SDS-PAGE and transfer on PVDF membrane at 100 V during 1 h. The blots were blocked with 5% BSA in TBS-T buffer (20 αmM Tris-HCl pH 7.4 and 0.05% Tween 20) and incubated with primary antibodies in TBST containing 5% bovine serum albumin, overnight at 4° C. Immunoreactivity was detected by sequential incubation with horseradish peroxidase-conjugated secondary antibodies purchased and ECL detection reagents purchased from Biorad. The antibodies used for phospho-protein detection were the followings: anti-AKT, anti-phospho-Akt (Ser473), anti-ERK1/2 and anti-phospho-ERK1/2 (Thr202/Tyr204, Thr185/Tyr187) (all from Cell Signaling Technology).
(§2) The aim of the experiments presented in FIG. 4 was to determine if, after incubation of endothelial cells with the peptide HEPV, the response to FGF-2 was affected by the presence of this peptide. The measured response to FGF-2 is the level of phosphorylation of proteins ERK 1/2 and Akt, involved in the signalization pathway of FGF-2 and VEGF, as determined with specific antibodies.
Endothelial cells HUVEC have been treated during 24 hours with HEPV or the control peptide ΔHBS-HEPV, and have then been stimulated with FGF-2 (FIG. 4A) or VEGF (50 ng/ml) (FIG. 4B).

[6] = test system: VEGF-induced ERK1/2 phosphorylation in HUVEC; assay: Phosphorylation assay (Western blot) after VEGF stimulation; format: cell-based; details: peptide 8 μg/mL 24 h, VEGF 50 ng/ml
Procedure: as §1, with “The blots were blocked with 5% BSA in TBS-T buffer (20 αmM Tris-HCl pH 7.4 and 0.05% Tween 20) and incubated with primary antibodies in TBST containing 5% bovine serum albumin, overnight at 4° C.” left out, “The antibodies used for phospho-protein detection were the followings: anti-AKT, anti-phospho-Akt (Ser473), anti-ERK1/2 and anti-phospho-ERK1/2 (Thr202/Tyr204, Thr185/Tyr187) (all from Cell Signaling Technology).” left out
as §2, with “antibodies. […]” for “antibodies.”

[7] = test system: human dermal microvascular endothelial cells (HDMEC); assay: Quantitative real-time RT-PCR of collagen genes in HEPV-treated endothelial cells; format: cell-based; details: HDMEC treated with HEPV for 4, 12 and 24 hours; relative to untreated controls, normalized to L30
Procedure: Expression of COL14A1 and COL18A1 mRNA in human dermal microvascular endothelial cells (HDMEC) treated with HEPV for 4, 12 and 24 hours, analyzed by real-time PCR. Values are normalized to the house keeping gene L30. Quantification is expressed relative to controls (cells cultivated in the same conditions without HEPV). Values are mean±SEM (n=3).
Total RNA was isolated from 8×10^6 cells by phenol-chloroform-isopropanol extraction (Trizol Reagent, Invitrogen). A reverse transcriptase reaction was performed on 1 μg of RNA using M-MLV reverse transcriptase (Promega). Quantitative PCRs were performed using SYBR Green Supermix (Biorad) and specific primers using a I-Cycler Optical System (Biorad). The following primers were used: […]
L30 was selected as housekeeping gene and used for normalization. Relative transcript abundances were determined as well known by the person skilled in the art. Relative gene expression was determined using the 2^−ΔΔC^T method. Student's t-tests were used to determine statistical significance (n=4).
A transcriptomic analysis has been performed, in order to identify the HEPV-regulated genes. Endothelial HDMEC cells have been treated with HEPV or not, for 4, 12 and 24 hours.

[8] = Heparin-Sepharose affinity chromatography (NaCl gradient elution); format: binding; details: linear NaCl gradient 0-500 mM, Tris-HCl pH 7.4
Procedure: Heparin-Sepharose affinity columns (HiTrap Heparin, Amersham) were equilibrated in 50 mM Tris-HCl (pH 7.4). Protein samples were loaded onto a column, and a programmed linear gradient of 0-500 mM NaCl, 1M Tris-HCl (pH 7.4) was applied at a flow rate of 0.5 ml/min, confirmed by continuous conductivity measurement. Fractions (1 ml) were collected, and the elution profile of protein samples was determined by monitoring the absorbance at 214 nm. To accurately compare elution positions of the mutant, its elution with NaCl gradient was achieved versus a standard HEPV elution.
The affinity of both peptides for heparin is compared, on a heparin-sepharose column, determined with the necessary quantity of NaCl to elute the peptides.

Molecule | Decrease of hemoglobin level in sponges, in comparison with mice treated with ΔHBS-HEPV [1] [times] | Blood vessels density in tumors (anti-CD31), compared to ΔHBS-HEPV-treated mice ([2]; day 20) | Tumor cells proliferation (anti-Ki67) ([2]; day 20) | Blood vessels density in tumors (anti-CD31), compared to ΔHBS-HEPV-treated mice ([2]; day 33) | Tumor cells proliferation (anti-Ki67) ([2]; day 33) | Tumor growth (tumor volume) [3] | Toxicity (concluded from absence of liver accumulation) [4] | Accumulation in various organs ([4]; results not shown) | Accumulation into the liver ([4]; results not shown) | Phosphorylation of Akt after stimulation with FGF-2 [5] | Phosphorylation of ERK1/2 after stimulation with FGF-2 [5] | Phosphorylation of ERK1/2 after stimulation with VEGF [6] | Expression of COL4A1 mRNA [7] | Expression of COL18A1 mRNA [7] | NaCl concentration needed to elute the peptide from heparin-sepharose [8] [M]
B1 | 2.5 | significant decrease | significant decrease | less significant | the proliferation strikes back | slows down; also recorded: significantly (p<0.05) slowed down | non-toxic | does not accumulate non-specifically in various organs, except in kidney and bladder | does not accumulate into the liver | inhibits | inhibited | present a phosphorylation of ERK1/2 | up-regulated | up-regulated | 0.35
B2 | – | – | – | – | – | – | – | – | – | – | inefficient | – | – | – | 0.2
